The record followed here is US20190010233A1 (JIANGSU HYAMAB PHARMACEUTICAL, published 2019).

B1: chimeric anti-PD-L1 antibody 127D2F3 (antibody, V domains shown)
VH: EVQLVESGGGLVQPGGSLRLSCVASGFTFSSYWMSWVRQAPGKGLEWVANIKQDGSEKYYVDSVKGRLTISRDNAKNSLYLQMKSLRAEDTAVYYCARDPIYSSYFDYWGQGILVTVSS
VL: DIQMTQSPSSLSASVGDRVTITCRASQSISNYLNWYQQKPGKAPKLLIYAASSLQSGVPSRFSGSGSGTDFTLTISSLQPEDFAAYYCQQSYGIPFTFGPGTKVDIK
notes: Purified from hybridoma of Harbour H2L2 mice: human variable regions, rat constant regions
B2: chimeric anti-PD-L1 antibody 73G11B3 (antibody, V domains shown)
VH: EVQLVESGGGLVQPGGSLRLSCVVSGFTFSSYWMSWVRQTPGKGLEWVANIKQDGSEKYYVDSVKGRLTISRDNAKNSLYLQMNSLRAEDTAVYYCVRDRAVPGTGALDIWGQGTMVTVSS
VL: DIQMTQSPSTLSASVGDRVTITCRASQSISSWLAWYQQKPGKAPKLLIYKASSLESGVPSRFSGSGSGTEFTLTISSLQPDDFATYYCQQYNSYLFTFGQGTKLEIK
notes: as for B1
B3: chimeric anti-PD-L1 antibody 73D3G2 (antibody, V domains shown)
VH: EVQLVESGGGLVQPGGSLRLSCAASGFTFNTYWMNWVRQAPGRGLEWVANIKQDGGEKYYVDSVKGRFTISRDNAKNSLYLQMNSLRAEDTAMYYCARDGRSWYPDAFDIWGQGTVVTVSS
VL: DIQMTQSPSTLSASVGDRVTITCRASQSISTWLAWYQQKLGKAPKLLIYEVSILESGVPSRFSGSGSGTEFTLTISSLQPDDFATYYCQQYHSFSSFGGGTRVEIK
notes: as for B1
B4: chimeric anti-PD-L1 antibody 105C5D7 (antibody, V domains shown)
VH: EVQLVESGGGLVQPGGSLRLSCAASGFTFSSYWMSWVRQAPGKGLEWVANIKQDGNEKYYVDSVKGRFTISRDNAKNSLYLQMNSLRAEDTAVYYCARNIKWGDAFDIWGQGTMVTVSS
VL: B1 VL with N31S, A85I, Y87S, G93S, F96L, P100G, D105E
notes: as for B1
B5: chimeric anti-PD-L1 antibody 78A11F6 (antibody, V domains shown)
VH: B2 VH with V23A, V24A, F27I, D62K, L68F, L108F, T118I
VL: DIQMTQSPSTLSASVGDRVTITCRASQSISNWLAWYQQKPGKAPKLLIYKASSLESGVPSRFSGSGSGTEFTLTISSLQPDDFATYYCQQYDSSLFTFGQGTKLEIK
notes: as for B1

Numbering of substitutions follows the chain as printed.

A word on the Kd: it is the equilibrium constant for the complex coming apart. The low end stands for tighter binding, the high end for weaker binding. As a reminder, the koff is the first-order rate constant of dissociation. Read a high koff as a short-lived complex. The term kon denotes the rate constant with which the complex forms.

T3 sequence (G7PSE7 entry or part of it limits assumed): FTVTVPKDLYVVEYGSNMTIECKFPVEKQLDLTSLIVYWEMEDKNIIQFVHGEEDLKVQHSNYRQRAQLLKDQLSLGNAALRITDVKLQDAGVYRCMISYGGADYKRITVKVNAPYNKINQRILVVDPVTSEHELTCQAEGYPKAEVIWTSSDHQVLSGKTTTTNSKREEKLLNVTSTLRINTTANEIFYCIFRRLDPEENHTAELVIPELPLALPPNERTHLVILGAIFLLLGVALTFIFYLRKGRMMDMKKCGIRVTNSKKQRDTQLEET
T4 sequence (G7PSE7 entry or part of it limits assumed): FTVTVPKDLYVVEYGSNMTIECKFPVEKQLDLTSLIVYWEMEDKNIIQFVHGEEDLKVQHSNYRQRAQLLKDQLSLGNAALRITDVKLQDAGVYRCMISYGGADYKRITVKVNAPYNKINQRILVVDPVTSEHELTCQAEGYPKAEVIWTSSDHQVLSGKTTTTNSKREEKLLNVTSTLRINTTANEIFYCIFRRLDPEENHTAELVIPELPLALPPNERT

The first assay deals with T1, full length human PD-L1 on cells (human, UniProt Q9NZQ7 19-290).
T1 construct: Also used as the target of the cell-based functional assays (transfected stimulator cells; PD-L1 of the cells in the mixed lymphocyte reaction); also called CHO-K1-hPD-L1; CHOK1-hPD-L1
T1 sequence (Q9NZQ7 19-290 limits assumed): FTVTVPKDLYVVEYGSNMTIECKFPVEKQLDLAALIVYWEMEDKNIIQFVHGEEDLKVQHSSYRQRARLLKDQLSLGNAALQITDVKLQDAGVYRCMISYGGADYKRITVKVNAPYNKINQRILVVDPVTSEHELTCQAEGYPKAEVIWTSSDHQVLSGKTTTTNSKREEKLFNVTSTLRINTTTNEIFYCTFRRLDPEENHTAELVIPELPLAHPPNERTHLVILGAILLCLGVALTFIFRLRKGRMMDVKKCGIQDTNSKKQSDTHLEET
The assay is described as follows: FACS CHO-K1-hPD-L1, 0.001 nM mAb. As to the method:
(§1) Other CHO-K1 were stably transfected with a pIRES plasmid containing the nucleic acid sequence encoding full length cyno PD-L1 to generate CHO-K1 cells stably expressing cyno PD-L1 (herein referred to as CHO-K1-cPD-L1 cells). […] The culture media was aspirated, and the cells were washed twice with HBSS (Hanks Balanced Salt Solution, Invitrogen). The cells were treated with enzyme-free cell dissociation solution (Versene solution, Invitrogen) and collected. The cells were then washed twice with HBSS, cell counts were determined, and cells were resuspended with HBSS at 2×10⁶ cells/mL. Goat serum was added to the cell suspension to a final concentration of 1%, and the cells were blocked for 30 minutes on ice and then washed twice with HBSS. The cells were collected after centrifugation and resuspended in FACS buffer (HBSS+1% BSA, v/v) at 2×10⁶ cells/mL. 100 μL of the cell suspension were then added to each well of 96-well plate. 100 μL of purified anti-PD-L1 antibodies from Example 2 were added to each well of the 96-well plate and incubated for 2 hours on ice. […] The samples were washed three times with FACS buffer, and 100 μL fixation buffer (4% paraformaldehyde v/v) were added to each well and incubated for 10 minutes. The cells were then washed twice with FACS buffer and resuspended in 100 μL FACS buffer. The mean fluorescence intensity (MFI) was determined using FACS Calibur (BD), and the results are shown in FIGS. 7-8 and in Tables 10-11.
B1: the Mean fluorescence intensity turned out to be 2.1.

B2 gave a Mean fluorescence intensity of 1.88.

The next assay has as its target T1, full length human PD-L1 on cells. The assay is described as follows: FACS CHO-K1-hPD-L1, 1.23 nM mAb.
Regarding B3, the Mean fluorescence intensity is 106.

Take B4: the Mean fluorescence intensity was found to be 206.

B5 came in with a Mean fluorescence intensity of 174.

The target in a further assay is T2, human PD-L1^ECD-hFc protein (human, UniProt Q9NZQ7 19-239, biotinylated in the PD-1 binding ELISA (Table 3) and in the Octet assay (Table 12)).
T2 construct: The plain and the biotinylated protein are kept as one molecule; also called PD-L1-hFc; Immunogen A; not shown: human IgG Fc fragment (hFc)
T2 sequence (Q9NZQ7 19-239): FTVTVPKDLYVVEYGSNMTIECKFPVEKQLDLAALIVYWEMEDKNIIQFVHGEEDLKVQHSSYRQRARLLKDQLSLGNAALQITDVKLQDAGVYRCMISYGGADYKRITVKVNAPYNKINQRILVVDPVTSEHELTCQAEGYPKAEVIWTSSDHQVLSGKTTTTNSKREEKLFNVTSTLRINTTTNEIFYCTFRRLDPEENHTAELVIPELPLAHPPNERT
Nature of the assay: ELISA, 0.001 nM mAb. As for the experimental part:
(§2) 100 μL of the diluted recombinant proteins were added to each well of 96-well plate. The plates were sealed with plastic film and incubated at 4° C. overnight. The plates were washed twice with wash buffer (PBS+0.01% (v/v) Tween20), and incubated with blocking buffer (PBS+0.01% (v/v) Tween20+1% (w/w) BSA) at room temperature for 2 hours. The blocking buffer was aspirated away, and 100 μL of purified anti-PD-L1 antibodies were added to each well and incubated for 2 hours at 37° C. The plates were washed three times with wash buffer (PBS+0.01% (v/v) Tween20). HRP-conjugated secondary antibody (Sigma) was added to each well and incubated for 2 hours at 37° C. After the plates were washed three times with wash buffer, 100 μL TMB substrate were added to each well, and the plates were incubated for 30 minutes at room temperature. 100 μL stop solution (0.1N HCl) was added to each well to stop the reaction.
On the technique in general: An ELISA detects its analyte on a solid surface through an enzyme-linked reagent.
Turning to B1, the OD450 nm came out at 0.24.

With B2, the OD450 nm was determined as 0.21.

In another assay the target is T1, full length human PD-L1 on cells. The assay is described as follows: FACS CHO-K1-hPD-L1, 33.33 nM mAb.
In turn, B3 gave a Mean fluorescence intensity of 116.

For the molecule B4, the Mean fluorescence intensity was determined as 194.

Molecule B5 returned a Mean fluorescence intensity of 225.

The next assay has as its target T2, human PD-L1^ECD-hFc protein. The assay is described as follows: BLI Octet Red 96, biotinylated PD-L1-hFc on SA sensor. As to the method: Dissociation constants were determined by Octed red 96 (Fortiebio). The detailed operation and methods were followed according to the specifications of the instrument provided by the manufacturer. Briefly, a streptavidin sensor (SA sensor, Fortiebio) was used for the affinity determination. […] The reaction mixture was further incubated in PBS buffer (pH 7.4) containing 0.1% (v/w) BSA and 0.02% (v/v) Tween20 at 30° C. for 5 minutes.
In general terms: BLI is a label-free optical method that tracks binding on a fibre tip over time.
In turn, B3 had a Kd of under 0.001 nM, a koff of under 1e-07 s⁻¹ and an association rate constant (kon) of 398000 M⁻¹ s⁻¹.

For B4, the Kd came to 0.245 nM, the koff is 0.000368 s⁻¹ and the kon worked out at 1.5e+06 M⁻¹ s⁻¹.

For B1, the Kd was under 0.001 nM, the koff is under 1e-07 s⁻¹ and the kon turned out to be 368000 M⁻¹ s⁻¹.

On to B5, for which the Kd was 0.148 nM, the off-rate (koff) is 3.64e-05 s⁻¹ and the kon was 245000 M⁻¹ s⁻¹.

Consider B2, for which the dissociation constant (Kd) was 0.116 nM, the koff is 3.95e-05 s⁻¹ and the on-rate constant (kon) stood at 341000 M⁻¹ s⁻¹.

A further assay has as its target T3, full length cyno PD-L1 on cells (cyno, UniProt G7PSE7 19-290).
T3 construct: also called CHO-K1-cPD-L1
The assay is described as follows: FACS CHO-K1-cPD-L1, 100.00 nM mAb. As to the method: as §1
The molecule B3 showed a Mean fluorescence intensity of 137.

B4 came in with a Mean fluorescence intensity of 120.

For B1, the Mean fluorescence intensity was 117.

B5 had a Mean fluorescence intensity of 144.

As for B2, the Mean fluorescence intensity was 107.

A further assay addresses T1, full length human PD-L1 on cells. The assay is described as follows: FACS CHO-K1-hPD-L1, 0.1 nM mAb.
Molecule B1 had a Mean fluorescence intensity of 15.5.

For B2, the Mean fluorescence intensity is 17.2.

For a further assay the target is unchanged. Nature of the assay: FACS CHO-K1-hPD-L1, 100.00 nM mAb.
B3: the Mean fluorescence intensity stood at 124.

In turn, B4 had a Mean fluorescence intensity of 182.

The molecule B1 gave a Mean fluorescence intensity of 234.

B5 registered a Mean fluorescence intensity of 232.

B2: the Mean fluorescence intensity came out at 215.

The target in another assay is T3, full length cyno PD-L1 on cells. The assay is described as follows: FACS CHO-K1-cPD-L1, 1.23 nM mAb. As to the method: as §1
In the case of B3, the Mean fluorescence intensity worked out at 116.

As for B4, the Mean fluorescence intensity was found to be 137.

The molecule B5 yielded a Mean fluorescence intensity of 124.

The next assay has as its target T4, cyno PD-L1^ECD-hFc protein (cyno, UniProt G7PSE7 19-239).
T4 construct: also called Cyno Monkey PD-L1^ECD-hFc
The assay is described as follows: ELISA, 30 nM mAb. As for the experimental part:
as §2
B3 gave an OD450 nm of 1.81.

Regarding B4, the OD450 nm was 1.53.

Turning to B5, the OD450 nm worked out at 2.06.

For a further assay, the target named is T2, human PD-L1^ECD-hFc protein. The assay is described as follows: ELISA, 30 nM mAb. As to the method:
as §2
B3 registered an OD450 nm of 1.81.

As for B4, the OD450 nm came out at 1.53.

B5: the OD450 nm came out at 1.95.

The next assay shares this target. The assay is described as follows: ELISA, 10 nM mAb. As to the method: as §2
As to B3, the OD450 nm is 2.09.

In the case of B4, the OD450 nm was 1.56.

For the molecule B1, the OD450 nm is 2.7.

In turn, B5 displayed an OD450 nm of 1.72.

Molecule B2 showed an OD450 nm of 2.73.

A further assay has as its target T4, cyno PD-L1^ECD-hFc protein. The assay is described as follows: ELISA, 0.041 nM mAb. As to the method:
as §2
B3: the OD450 nm is 0.36.

With B4, the OD450 nm was 0.34.

B5: the OD450 nm was 0.45.

The target in a further assay is T2, human PD-L1^ECD-hFc protein. Nature of the assay: ELISA, 0.041 nM mAb. As to the method: as §2
B3 had an OD450 nm of 0.36.

For B4, the OD450 nm came to 0.34.

The molecule B5 displayed an OD450 nm of 0.37.

For another assay, the target named is T1, full length human PD-L1 on cells. Nature of the assay: cell-based or functional assay.
With B3, the “IFN-γ (pg/mL), PBMC stimulation, 0.001 µg/mL mAb” value (from here on “IFN-γ (pg/mL) … 0.001 µg/mL mAb”) was determined as 3830 pg/mL; the “IFN-γ (pg/mL), PBMC stimulation, 0.01 µg/mL mAb” value (from here on “IFN-γ (pg/mL) … 0.01 µg/mL mAb”) is 3280 pg/mL; the “IFN-γ (pg/mL), PBMC stimulation, 0.1 µg/mL mAb” value (“IFN-γ (pg/mL) … 0.1 µg/mL mAb” for short) turned out to be 9560 pg/mL; the “IFN-γ (pg/mL), PBMC stimulation, 1 µg/mL mAb” value stood at 8760 pg/mL.

Turning to B4, the “IFN-γ (pg/mL) … 0.001 µg/mL mAb” value amounted to 1640 pg/mL; the “IFN-γ (pg/mL) … 0.01 µg/mL mAb” value came out at 3380 pg/mL; the “IFN-γ (pg/mL) … 0.1 µg/mL mAb” value amounted to 5850 pg/mL; the “IFN-γ (pg/mL), PBMC stimulation, 1 µg/mL mAb” value was 7570 pg/mL.

B1: the “IFN-γ (pg/mL) … 0.001 µg/mL mAb” value was found to be 3380 pg/mL; the “IFN-γ (pg/mL) … 0.01 µg/mL mAb” value was determined as 7030 pg/mL; the “IFN-γ (pg/mL) … 0.1 µg/mL mAb” value came to 7610 pg/mL; the “IFN-γ (pg/mL), PBMC stimulation, 1 µg/mL mAb” value came out at 8100 pg/mL. The “IFN-γ (pg/mL), PBMC stimulation, 10 µg/mL mAb” value came out at 10100 pg/mL.

Take B5: the “IFN-γ (pg/mL) … 0.001 µg/mL mAb” value stood at 3740 pg/mL; the “IFN-γ (pg/mL) … 0.01 µg/mL mAb” value came out at 11100 pg/mL; the “IFN-γ (pg/mL) … 0.1 µg/mL mAb” value came to 6100 pg/mL; the “IFN-γ (pg/mL), PBMC stimulation, 1 µg/mL mAb” value worked out at 13000 pg/mL.

For B2, the “IFN-γ (pg/mL) … 0.001 µg/mL mAb” value was determined as 2400 pg/mL; the “IFN-γ (pg/mL) … 0.01 µg/mL mAb” value was found to be 5700 pg/mL; the “IFN-γ (pg/mL) … 0.1 µg/mL mAb” value was found to be 6290 pg/mL; the “IFN-γ (pg/mL), PBMC stimulation, 1 µg/mL mAb” value was found to be 7860 pg/mL. The “IFN-γ (pg/mL), PBMC stimulation, 10 µg/mL mAb” value is 10700 pg/mL.
